According to patent US20250277029A1 (Amgen, published 2025):
Changes are numbered by the printed parent chain. In names and notes the source's numbering stands.

B1: LIBC673952-1 (Fab on yeast) (Fab, V domains shown)
VH: QVQLQESGPGLVKPSQTLSLTCTVSGGSIRRGGDYWSWIRQHPGKGLEWIGHVYYTGQTTYNPSFRGRVTISVNTYKNQFSLKLSSVTAADTAVYYCARDYDILTGYSYYYYGLDVWGQGTTVTVSS
VL: DIVMTQSPLSLPVTPGEPASISCRSSQSLLHRSGYNYLDWYLQKPGQSPQLLIYQGSNRASGVPDRFSGSGSGTDFTLKISRVEAEDVGVYYCRQARALPRTFGQGTKVEIKR
notes: Clone of the Fab-yeast libraries
B2: LIBC674257-1 (Fab on yeast) (Fab, V domains shown)
VH: QVQLQESGPGLVKPSQTLSLTCTVSGGSIRRGGDYWSWIRQHPGKGLEWIGHIYYTGQTKYNPSLRGRVRISVNTYKNQFSLKLSSVTAADTAVYYCARGYDISGYSYYYYGLDVWGQGTTVTVSS
VL: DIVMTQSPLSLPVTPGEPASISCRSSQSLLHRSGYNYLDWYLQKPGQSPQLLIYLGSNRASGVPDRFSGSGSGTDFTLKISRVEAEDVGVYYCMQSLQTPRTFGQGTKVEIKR
notes: as for B1
B3: LIBC674235-1 (Fab on yeast) (Fab, V domains shown)
VH: B2 VH with I53V, T56A, Q58S, K60T, R66K, G67S, I103V
VL: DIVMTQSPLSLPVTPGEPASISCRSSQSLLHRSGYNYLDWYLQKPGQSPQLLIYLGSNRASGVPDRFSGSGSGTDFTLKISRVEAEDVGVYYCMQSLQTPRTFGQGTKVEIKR
notes: as for B1
B4: LIBC674229-1 (Fab on yeast) (Fab, V domains shown)
VH: B2 VH with Y55Q, L65F, R66K, I103V, L113M
VL: B1 VL with R94M, A96S, R97L, A98Q, L99T
notes: as for B1
B5: LIBC674214-1 (Fab on yeast) (Fab, V domains shown)
VH: B2 VH with I53V, T56E, Q58S, L65F, I103V
VL: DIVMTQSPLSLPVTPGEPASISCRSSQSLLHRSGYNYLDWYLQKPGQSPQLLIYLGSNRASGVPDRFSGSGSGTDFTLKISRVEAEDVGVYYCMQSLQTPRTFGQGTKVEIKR
notes: as for B1
B6: LIBC674002-1 (Fab on yeast) (Fab, V domains shown)
VH: B2 VH with T56K, Q58S, K60E, I103V
VL: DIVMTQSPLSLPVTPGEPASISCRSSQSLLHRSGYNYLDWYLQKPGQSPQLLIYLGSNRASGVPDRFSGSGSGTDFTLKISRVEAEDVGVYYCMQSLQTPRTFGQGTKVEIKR
notes: as for B1
B7: LIBC674043-1 (Fab on yeast) (Fab, V domains shown)
VH: B2 VH with K60T, S64N, L65F, R66K, I103A, L113M, S126R
VL: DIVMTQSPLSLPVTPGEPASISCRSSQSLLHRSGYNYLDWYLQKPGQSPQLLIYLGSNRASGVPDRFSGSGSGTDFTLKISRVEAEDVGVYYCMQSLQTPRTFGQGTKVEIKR
notes: Original clone of the Fab-yeast libraries, without the R149S reversion
B8: LIBC674090-1 (Fab on yeast) (Fab, V domains shown)
VH: B2 VH with T56A, Q58S, K60A, S64N, L65F, I103T
VL: B1 VL with R94M, A96S, R97L, A98Q, L99T
notes: as for B1
B9: LIBC674035-1 (Fab on yeast) (Fab, V domains shown)
VH: B2 VH with T56A, L65F, R66K, G67N
VL: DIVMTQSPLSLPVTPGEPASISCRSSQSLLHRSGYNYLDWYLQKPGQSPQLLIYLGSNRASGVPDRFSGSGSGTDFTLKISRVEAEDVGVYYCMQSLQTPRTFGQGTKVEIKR
notes: as for B1
B10: LIBC674024-1 (Fab on yeast) (Fab, V domains shown)
VH: B2 VH with I53V, Y55Q, Q58S, L65F, R66K, G67N, I103V
VL: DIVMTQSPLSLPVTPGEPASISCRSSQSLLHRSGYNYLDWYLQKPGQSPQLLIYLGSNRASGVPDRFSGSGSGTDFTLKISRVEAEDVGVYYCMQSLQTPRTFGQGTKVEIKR
notes: as for B1
B11: LIBC674216-1 (Fab on yeast) (Fab, V domains shown)
VH: B2 VH with K60A, G67N
VL: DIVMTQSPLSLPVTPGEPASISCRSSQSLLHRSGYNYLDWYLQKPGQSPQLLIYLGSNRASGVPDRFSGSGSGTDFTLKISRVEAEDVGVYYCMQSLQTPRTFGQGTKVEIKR
notes: as for B1
B12: LIBC674200-1 (Fab on yeast) (Fab, V domains shown)
VH: B2 VH with I53V, K60A, S64N, L65F, G67N, I103V, L113M
VL: B1 VL with Q55L, D65G, R94M, A96S, R97L, A98Q, L99T
notes: Original clone of the Fab-yeast libraries, without the LC G76D reversion
B13: LIBC674276-1 (Fab on yeast) (Fab, V domains shown)
VH: B2 VH with I53V, Q58S, K60T, S64N, L65F, R66K, I103A
VL: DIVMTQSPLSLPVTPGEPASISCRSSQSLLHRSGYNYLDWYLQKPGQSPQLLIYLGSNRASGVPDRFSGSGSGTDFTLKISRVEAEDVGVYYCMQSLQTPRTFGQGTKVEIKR
notes: as for B1
B14: LIBC673952-1 (IgG1 SEFL2 mAb) (antibody, V domains shown)
VH: B1 VH
VL: B1 VL
B15: LIBC680812-1 (IgG1 SEFL2 mAb) (antibody, V domains shown)
VH: B1 VH with S37G, Y55Q, Q58S, T60K, R66K, G67D, V69A, D100N, I103T, L114M
VL: DIQMTQSPSSLSASVGDRVTITCRASQSISSYLNWYQQKPGKAPKLLIYSARRLSSGVPSRFSGSGSGTDFTLTISSLQPEDFATYYCQQYRSYPITFGGGTKVEIKR
B16: LIBC680574-1 (IgG1 SEFL2 mAb) (antibody, V domains shown)
VH: B1 VH with S37A, Q58S, T60K, R66K, G67D, V69A, D100N, I103T, L114M
VL: B15 VL with S50G, S55G, R92S, Y94L, I96V
B17: LIBC674090-1 (IgG1 SEFL2 mAb) (antibody, V domains shown)
VH: B2 VH with T56A, Q58S, K60A, S64N, L65F, I103T
VL: B1 VL with R94M, A96S, R97L, A98Q, L99T
B18: LIBC680562-1 (IgG1 SEFL2 mAb) (antibody, V domains shown)
VH: QVQLQESGPGLVKPSQTLSLTCTVSGGSIRRGGDYWAWIRQHPGKGLEWIGHIYQTGSTNYNPRFKGRATISVNTYKNQFSLKLSSVTAADTAVYYCARNYDTLTGYSYYYYGMDVWGQGTTVTVSS
VL: B15 VL with R92A, S93K, Y94S
B19: LIBC680773-1 (IgG1 SEFL2 mAb) (antibody, V domains shown)
VH: B18 VH with I53V, Q55Y, G67D, L104V
VL: B15 VL with S50K, R53L, R92S, S93R, Y94L, I96L
B20: LIBC680800-1 (IgG1 SEFL2 mAb) (antibody, V domains shown)
VH: B18 VH
VL: B15 VL with R53A, S93K, Y94F, I96L
B21: LIBC673965-1 (IgG1 SEFL2 mAb) (antibody, V domains shown)
VH: B2 VH with I53V, K60A, I103T
VL: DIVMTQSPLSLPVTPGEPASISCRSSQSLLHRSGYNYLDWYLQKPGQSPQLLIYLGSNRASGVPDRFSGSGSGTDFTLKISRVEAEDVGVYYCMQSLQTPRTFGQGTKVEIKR
B22: LIBC673972-1 (IgG1 SEFL2 mAb) (antibody, V domains shown)
VH: B2 VH with K60A, S64N, G67N, I103A
VL: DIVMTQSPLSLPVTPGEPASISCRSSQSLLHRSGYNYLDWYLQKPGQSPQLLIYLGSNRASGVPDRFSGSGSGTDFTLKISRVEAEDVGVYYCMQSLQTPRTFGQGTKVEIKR
B23: LIBC673982-1 (IgG1 SEFL2 mAb) (antibody, V domains shown)
VH: B2 VH with Q58S, K60T, L65F, G100D, L113M
VL: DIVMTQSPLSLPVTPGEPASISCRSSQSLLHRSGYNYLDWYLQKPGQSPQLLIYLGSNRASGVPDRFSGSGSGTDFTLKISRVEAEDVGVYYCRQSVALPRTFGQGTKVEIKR

These binders were tested against T1, GFP-fused huCB1-SMALP (human, UniProt P21554 1-472) (assay: flow cytometry, yeast-displayed Fab, 5 nM CB1 SMALP).
T1 construct: Human CB1 fused to GFP in styrene maleic acid lipoparticles, made as in Luna et al. 2018; also called huCB1-GFP-SMALP; GFP-tagged huCB1-SMALP; not shown: GFP fused to huCB1
T1 sequence (P21554 whole entry, the tested form may be a part): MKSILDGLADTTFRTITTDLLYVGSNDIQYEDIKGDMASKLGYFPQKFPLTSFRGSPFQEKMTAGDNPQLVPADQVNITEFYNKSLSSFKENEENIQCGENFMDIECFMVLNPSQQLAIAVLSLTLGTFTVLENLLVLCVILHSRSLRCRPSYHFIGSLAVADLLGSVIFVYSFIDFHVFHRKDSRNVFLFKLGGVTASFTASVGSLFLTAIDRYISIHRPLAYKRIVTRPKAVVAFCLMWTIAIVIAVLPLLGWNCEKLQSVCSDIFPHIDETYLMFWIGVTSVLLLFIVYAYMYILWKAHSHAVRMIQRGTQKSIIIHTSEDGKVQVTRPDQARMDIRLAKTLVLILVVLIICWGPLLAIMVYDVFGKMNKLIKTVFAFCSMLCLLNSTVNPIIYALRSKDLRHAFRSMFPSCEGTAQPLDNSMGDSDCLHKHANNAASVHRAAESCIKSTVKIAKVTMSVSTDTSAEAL

| Binder | relative binding fold change compared to LIBC523797-1(Fab) [fold] |
| --- | --- |
| B1 | 1.23 |
| B2 | 1.19 |
| B3 | 1.3 |
| B4 | 1.11 |
| B5 | 1.17 |
| B6 | 1.49 |
| B7 | 1.2 |
| B8 | 1.2 |
| B9 | 1.29 |
| B10 | 1.24 |
| B11 | 1.1 |
| B12 | 1.33 |
| B13 | 1.17 |

The binders below were run against T2, His-tagged huCB1-ND (human, UniProt P21554 99-414, limits assumed) (assay: flow cytometry, yeast-displayed Fab, 0.5 nM CB1 ND).
T2 construct: The real construct may be truncated or engineered; also called CB1-nanodisc; not shown: histidine purification tag
T2 sequence (P21554 99-414 limits assumed): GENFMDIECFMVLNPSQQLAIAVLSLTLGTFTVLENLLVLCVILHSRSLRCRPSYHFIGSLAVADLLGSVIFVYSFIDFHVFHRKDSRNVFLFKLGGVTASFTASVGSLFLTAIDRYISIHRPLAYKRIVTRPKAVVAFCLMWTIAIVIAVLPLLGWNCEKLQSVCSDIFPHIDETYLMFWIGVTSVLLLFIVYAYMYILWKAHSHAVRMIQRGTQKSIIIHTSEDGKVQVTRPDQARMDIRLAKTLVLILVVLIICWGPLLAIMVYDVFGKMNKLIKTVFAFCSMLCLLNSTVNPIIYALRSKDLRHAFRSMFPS

| Binder | relative binding fold change compared to LIBC523797-1(Fab) [fold] |
| --- | --- |
| B1 | 0.77 |
| B2 | 1.86 |
| B3 | 1.28 |
| B4 | 2.22 |
| B5 | 1.76 |
| B6 | 0.46 |
| B7 | 1.85 |
| B8 | 1.35 |
| B9 | 0.52 |
| B10 | 0.49 |
| B11 | 1.66 |
| B12 | 2.08 |
| B13 | 2.04 |

What follows are binders tested against T1, GFP-fused huCB1-SMALP (assay: flow cytometry, yeast-displayed Fab, 10 nM CB1 SMALP).

| Binder | relative binding fold change compared to LIBC523797-1(Fab) [fold] |
| --- | --- |
| B1 | 1.91 |
| B2 | 3.34 |
| B3 | 2.05 |
| B4 | 3.17 |
| B5 | 2.1 |
| B6 | 2.59 |
| B7 | 3.23 |
| B8 | 2.85 |
| B9 | 2.74 |
| B10 | 2.39 |
| B11 | 1.96 |
| B12 | 3.31 |
| B13 | 2.06 |

What follows are binders tested against human CB1 on stably transfected CB1 CHO cells (human, UniProt P21554 1-472) (assay: cell-based or functional assay).
Sequence of human CB1 on stably transfected CB1 CHO cells (P21554 whole entry): as the sequence (P21554 whole entry, the tested form may be a part) above

| Binder | IC50 (nM, n = 4), antagonist activity, TR-FRET cAMP assay [nM] |
| --- | --- |
| B14 | 2.48 |
| B15 | 0.68 |
| B16 | 0.75 |
| B17 | 1.76 |
| B18 | 0.71 |
| B19 | 0.74 |
| B20 | 1.57 |
| B21 | 2.21 |
| B22 | 2.43 |
| B23 | 2.11 |

These binders were tested against T3, Empty ND (assay: flow cytometry, yeast-displayed Fab, 50 nM Empty ND).
T3 construct: It carries no receptor; the scaffold is its only protein; also called empty nanodisc

| Binder | relative binding fold change compared to LIBC523797-1(Fab) [fold] |
| --- | --- |
| B1 | 0.62 |
| B2 | 0.73 |
| B3 | 0.72 |
| B4 | 0.75 |
| B5 | 1.09 |
| B6 | 0.03 |
| B7 | 0.75 |
| B8 | 0.99 |
| B9 | 0.56 |
| B10 | 0.55 |
| B11 | 0.65 |
| B12 | 0.74 |
| B13 | 0.51 |
